# Results published in patent US20040077526A1.
# Experiments:
# [1] = biological target: murine SR-BI (mSR-BI), class B type I scavenger receptor (murine) (UniProt Q61009); assay: time course of cell association of 125I-HDL with ldlA[mSR-BI] cells at 37 C
# [2] = biological target: murine SR-BI (mSR-BI), class B type I scavenger receptor (murine) (UniProt Q61009); assay: cell association of 125I-HDL with ldlA[mSR-BI] cells at 37 C
# [3] = biological target: murine SR-BI (mSR-BI), class B type I scavenger receptor (murine) (UniProt Q61009); assay: self-competition: unlabeled HDL (500 µg protein/ml) against [125I,3H]hHDL3 (10 µg protein/ml) on Y1-BS1 cells
# UniProt Q61009, sequence (Q61009 whole entry): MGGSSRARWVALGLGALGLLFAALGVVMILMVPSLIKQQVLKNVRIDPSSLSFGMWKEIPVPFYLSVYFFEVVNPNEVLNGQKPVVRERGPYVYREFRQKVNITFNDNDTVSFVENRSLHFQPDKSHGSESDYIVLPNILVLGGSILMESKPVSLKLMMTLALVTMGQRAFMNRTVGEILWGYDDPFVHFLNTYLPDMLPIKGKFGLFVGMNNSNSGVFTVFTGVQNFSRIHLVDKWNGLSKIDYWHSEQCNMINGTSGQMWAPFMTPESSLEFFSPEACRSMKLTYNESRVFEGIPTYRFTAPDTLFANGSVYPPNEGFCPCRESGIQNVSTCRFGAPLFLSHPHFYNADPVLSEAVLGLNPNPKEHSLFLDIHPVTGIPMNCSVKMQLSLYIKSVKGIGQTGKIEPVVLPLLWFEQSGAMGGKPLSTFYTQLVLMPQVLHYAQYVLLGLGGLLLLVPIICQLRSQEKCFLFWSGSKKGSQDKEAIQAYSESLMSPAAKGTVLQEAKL
cell-associated 125I-HDL at steady state (ng protein/mg cell protein) [1],fraction of the total label bound to the transfected cells in 5 hours [2] [%],reduction of cell association of HDL [3] [%],Substance
200,< 0.5,–,human HDL (high density lipoprotein prepared from human plasma by zonal centrifugation) (from UniProt P02647 25-267; P02652 24-100)
–,–,85,"human HDL3 (hHDL3, 1.125-1.210 g/ml) labeled with [125I]dilactitol tyramine and [3H]cholesteryl oleolyl ether"
